Where a chain is given by its changes, count along the chain named.
Columns and labels:
CDO-IC-D1153N = target: T1, CDO-IC-D1153N (UniProt Q32MD9)
T1 sequence: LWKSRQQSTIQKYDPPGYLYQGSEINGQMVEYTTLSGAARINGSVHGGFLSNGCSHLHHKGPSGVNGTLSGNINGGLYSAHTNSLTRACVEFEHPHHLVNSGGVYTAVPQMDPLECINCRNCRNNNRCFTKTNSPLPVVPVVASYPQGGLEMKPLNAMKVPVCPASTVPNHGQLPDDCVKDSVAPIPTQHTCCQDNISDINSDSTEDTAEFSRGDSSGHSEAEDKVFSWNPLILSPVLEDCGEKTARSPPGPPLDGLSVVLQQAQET

[1] = target: T2, CDO intracellular domain wild type (CDO-IC wt), in vitro-translated (UniProt Q32MD9)
T2 sequence: T1 sequence with N170D

CDO-IC-D1153N-D1164N = target: T3, CDO-IC-D1153N-D1164N (UniProt Q32MD9)
T3 sequence: T1 sequence with D181N

[2] = target: T4, CDO-IC with Asp1178 to Asn mutation (UniProt Q32MD9)
T4 sequence: T1 sequence with N170D, D195N

Substance: Recombinant purified active caspase-3
- in vitro cleavage of in vitro-translated CDO-IC by purified active caspase-3 (autoradiograph, FIG. 5) (CDO-IC-D1153N): mutation of Asp^1153 to Asn (CDO-IC D1153N) strongly inhibited cleavage by caspase-3
- in vitro cleavage of in vitro-translated CDO-IC by purified active caspase-3 (autoradiograph, FIG. 5) [1]: CDO intracellular domain (CDO-IC, amino acids 985 to 1250) was cleaved in vitro when incubated with purified active caspase-3
- in vitro cleavage of in vitro-translated CDO-IC by purified active caspase-3 (autoradiograph, FIG. 5) (CDO-IC-D1153N-D1164N): Asp^1153/Asp^1164 to Asn double mutation almost completely suppressed caspase-3 cleavage
- in vitro cleavage of in vitro-translated CDO-IC by purified active caspase-3 (autoradiograph, FIG. 5) [2]: the Asp^1178 to Asn mutation had no effect on CDO-IC cleavage

From US20130089548
